Experimental data: publication PMC8749442 (iScience, 2021)

Columns and labels:
cryo-EM structure = target: the molecule itself; test: cryo-EM structure
[1] = target: GroEL (wild-type bacterial chaperonin) (UniProt P0A6F5 1-548); test: cryo-EM structure
Sequence of GroEL (wild-type bacterial chaperonin) (P0A6F5 whole entry): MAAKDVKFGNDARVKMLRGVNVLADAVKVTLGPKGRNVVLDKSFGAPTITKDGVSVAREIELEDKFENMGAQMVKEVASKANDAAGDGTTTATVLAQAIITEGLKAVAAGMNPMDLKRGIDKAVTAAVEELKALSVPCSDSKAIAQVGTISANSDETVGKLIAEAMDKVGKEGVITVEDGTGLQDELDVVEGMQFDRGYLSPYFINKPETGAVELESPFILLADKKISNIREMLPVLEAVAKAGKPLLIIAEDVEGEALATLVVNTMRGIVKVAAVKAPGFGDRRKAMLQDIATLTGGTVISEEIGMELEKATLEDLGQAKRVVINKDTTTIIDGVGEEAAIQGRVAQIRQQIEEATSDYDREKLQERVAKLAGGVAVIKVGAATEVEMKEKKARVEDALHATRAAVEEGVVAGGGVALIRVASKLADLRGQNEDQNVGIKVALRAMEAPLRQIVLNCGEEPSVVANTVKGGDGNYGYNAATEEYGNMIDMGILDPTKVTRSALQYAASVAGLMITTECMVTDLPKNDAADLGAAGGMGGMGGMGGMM

B1: GroES (co-chaperone of GroEL) (natural protein)
chain: MNIRPLHDRVIVKRKEVETKSAGGIVLTGSAAAKSTRGEVLAVGNGRILENGEVKPLDVKVGDIVIFNDGYGVKSEKIDNEEVLIMSESDILAIVEA
B1: binds (cryo-EM structure); binds [1].
